Values quoted from earlier work in patent publication US7338947B2, “Cyclic derivatives as modulators of chemokine receptor activity” (Bristol-Myers Squibb Co., priority 2003, dated 2008).

Tested on: MCP-1 expression in peripheral blood mononuclear cells
Settings: human multiple sclerosis, effective therapy

B1: interferon b-1b: interferon b-1b, effective therapy in human multiple sclerosis (protein, UniProt P01574 22-187, looked up, variant C17S)
Interferon beta: MSYNLLGFLQRSSNFQSQKLLWQLNGRLEYCLKDRMNFDIPEEIKQLQQFQKEDAALTIYEMLQNIFAIFRQDSSSTGWNETIVENLLANVYHQINHLKTVLEEKLEKEDFTRGKLMSSLHLKRYYGRILHYLKAKEYSHCAWTIVRVEILRNFYFINRLTGYLRN
modifications: interferon beta-1b
- MCP-1 expression in peripheral blood mononuclear cells: reduces MCP-1 expression
